Measurements from the supplement of paper PMC7877785.
± gives the uncertainty stated by the source.

Test: self-splicing fitness, log relative to wild type (ln ratio); higher = more splicing; Tetrahymena group I intron in knt gene, E. coli kanamycin selection, DiMSum; sequences stand for … in CUCUCU…GGAGGGAAAAGUUAUCAGGCAUGCACCUGGUAGCUAGUCUUUAAACCAAUAGAUUGCAUCGGUUUAAAAGGCAAGACCGUCAAAUUGCGGGAAAGGGGUCAACAGCCGUUCAGUACCAAGUCUCAGGGGAAACUUUGAGAUGGCCUUGCAAAGGGUAUGGUAAUAAGCUGACGGACAUGGUCCUAACCACGCAGCCAAGUCCUAAGUCAACAGAUCUUCUGUUGAUAUGGAUGCAGUUCACAGACUAAAUGUCGGUCGGGGAAGAUGUAUUCUUCUCAUAAGAUAUAGUCGGACCUCUCCUUAAUGGGAGCUAGCGGAUGAAGUGAUGCAACACUGGAGCCGCUGGGAACUAAUUUGUAUGCGAAAGUAUAUUGAUUAGUUUUGGAGUACUCGUGGUCG
How it was run: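 Pooled colonies went to amplicon sequencing on an Illumina HiSeq 2500 after six replicate transformations. The plates were LB agar with 100 μg/mL carbenicillin, 50 μM IPTG and 0.2% rhamnose, with or without 25 μg/mL kanamycin, incubated overnight at 37°C or 30°C. The E. coli BL21(DE3) library had all eight P1ex-region intron nucleotides randomised, the intron placed in the knt kanamycin-resistance gene on pET-22b(+). DiMSum fitness is the error-weighted combination of replicate fold changes, kanamycin against none, normalised to wild type.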

Sequence: AGCCAGCAAUAUUACGCCCA
- self-splicing fitness (ln) (30 °C): -1.93 ± 0.2
- self-splicing fitness (ln) (37 °C): -1.72 ± 0.25

Sequence: UUUGAGCAAUAUUACGUAAU
- self-splicing fitness (ln) (30 °C): -3.94 ± 0.43
- self-splicing fitness (ln) (37 °C): -1.65 ± 0.23

Sequence: CUAGAGCAAUAUUACGUGUA
- self-splicing fitness (ln) (30 °C): -4.57 ± 0.46
- self-splicing fitness (ln) (37 °C): -2.41 ± 0.23

Sequence: UAUAAGCAAUAUUACGCCCU
- self-splicing fitness (ln) (30 °C): -1.15 ± 0.16
- self-splicing fitness (ln) (37 °C): 0.38 ± 0.16

Sequence: CGAAAGCAAUAUUACGACCA
- self-splicing fitness (ln) (30 °C): -1.24 ± 0.14
- self-splicing fitness (ln) (37 °C): -1.24 ± 0.15

Sequence: AGCCAGCAAUAUUACGGGGA
- self-splicing fitness (ln) (30 °C): -1.87 ± 0.12
- self-splicing fitness (ln) (37 °C): -0.713 ± 0.11

Sequence: UUUUAGCAAUAUUACGUAUG
- self-splicing fitness (ln) (30 °C): -2.01 ± 0.19
- self-splicing fitness (ln) (37 °C): -0.735 ± 0.2

Sequence: AAAUAGCAAUAUUACGUGAA
- self-splicing fitness (ln) (30 °C): -3.08 ± 0.12
- self-splicing fitness (ln) (37 °C): -0.845 ± 0.097

Sequence: CGUAAGCAAUAUUACGGACC
- self-splicing fitness (ln) (30 °C): -0.744 ± 0.11
- self-splicing fitness (ln) (37 °C): -0.0128 ± 0.14

Sequence: UUAGAGCAAUAUUACGGUUC
- self-splicing fitness (ln) (30 °C): -2.42 ± 0.4

Sequence: GGGAAGCAAUAUUACGGUGG
- self-splicing fitness (ln) (30 °C): -3.18 ± 0.24
- self-splicing fitness (ln) (37 °C): -2 ± 0.24

Sequence: GACGAGCAAUAUUACGCCUA
- self-splicing fitness (ln) (30 °C): -0.714 ± 0.32

Sequence: CCACAGCAAUAUUACGUAAC
- self-splicing fitness (ln) (30 °C): -3.47 ± 0.2
- self-splicing fitness (ln) (37 °C): -1.35 ± 0.16

Sequence: AAGUAGCAAUAUUACGGAGG
- self-splicing fitness (ln) (30 °C): -3.89 ± 0.33
- self-splicing fitness (ln) (37 °C): -2.5 ± 0.33

Sequence: UUUAAGCAAUAUUACGUGAU
- self-splicing fitness (ln) (30 °C): -2.59 ± 0.15
- self-splicing fitness (ln) (37 °C): -1.67 ± 0.21

Sequence: UAUGAGCAAUAUUACGGAUG
- self-splicing fitness (ln) (30 °C): -2.09 ± 0.12
- self-splicing fitness (ln) (37 °C): -1.64 ± 0.17

Sequence: AGGGAGCAAUAUUACGUCGU
- self-splicing fitness (ln) (30 °C): -4.4 ± 0.46
- self-splicing fitness (ln) (37 °C): -2.46 ± 0.33

Sequence: CCAGAGCAAUAUUACGGUAG
- self-splicing fitness (ln) (30 °C): -2.14 ± 0.11
- self-splicing fitness (ln) (37 °C): -2.34 ± 0.2

Sequence: AACAAGCAAUAUUACGGAGG
- self-splicing fitness (ln) (30 °C): -3.19 ± 0.19
- self-splicing fitness (ln) (37 °C): -0.738 ± 0.15

Sequence: AUUGAGCAAUAUUACGUAUA
- self-splicing fitness (ln) (30 °C): -2.67 ± 0.28
- self-splicing fitness (ln) (37 °C): -2.98 ± 0.32

Sequence: AUUGAGCAAUAUUACGACUU
- self-splicing fitness (ln) (30 °C): -1.5 ± 0.12
- self-splicing fitness (ln) (37 °C): -0.31 ± 0.13

Sequence: UGCAAGCAAUAUUACGGGAC
- self-splicing fitness (ln) (30 °C): -4 ± 0.37

Sequence: UCGAAGCAAUAUUACGCGUG
- self-splicing fitness (ln) (30 °C): -0.488 ± 0.07
- self-splicing fitness (ln) (37 °C): -0.256 ± 0.078

Sequence: AAGUAGCAAUAUUACGGCUG
- self-splicing fitness (ln) (30 °C): -0.444 ± 0.083
- self-splicing fitness (ln) (37 °C): -0.731 ± 0.13

Sequence: CCCGAGCAAUAUUACGCCGG
- self-splicing fitness (ln) (30 °C): -3.9 ± 0.37
- self-splicing fitness (ln) (37 °C): -2.23 ± 0.34

Sequence: CAUGAGCAAUAUUACGGGUC
- self-splicing fitness (ln) (30 °C): -2.75 ± 0.25
- self-splicing fitness (ln) (37 °C): -2.75 ± 0.27

Sequence: ACACAGCAAUAUUACGGAAG
- self-splicing fitness (ln) (30 °C): -3.07 ± 0.14
- self-splicing fitness (ln) (37 °C): -1.12 ± 0.11

Sequence: CCCUAGCAAUAUUACGGUAC
- self-splicing fitness (ln) (30 °C): -4.33 ± 0.34
- self-splicing fitness (ln) (37 °C): -3.04 ± 0.32

Sequence: AAAGAGCAAUAUUACGGAAU
- self-splicing fitness (ln) (30 °C): -2.79 ± 0.19
- self-splicing fitness (ln) (37 °C): -2.57 ± 0.27

Sequence: GAAGAGCAAUAUUACGAUAC
- self-splicing fitness (ln) (30 °C): -2.75 ± 0.39

Sequence: GAUCAGCAAUAUUACGUAGA
- self-splicing fitness (ln) (30 °C): -0.569 ± 0.08
- self-splicing fitness (ln) (37 °C): -0.158 ± 0.14

Sequence: AUCGAGCAAUAUUACGUGCA
- self-splicing fitness (ln) (30 °C): -2.85 ± 0.21
- self-splicing fitness (ln) (37 °C): -1.14 ± 0.13

Sequence: GCCCAGCAAUAUUACGAGGU
- self-splicing fitness (ln) (30 °C): -3.81 ± 0.2
- self-splicing fitness (ln) (37 °C): -3.07 ± 0.22

Sequence: AUUCAGCAAUAUUACGUGUA
- self-splicing fitness (ln) (30 °C): -1.7 ± 0.11
- self-splicing fitness (ln) (37 °C): -1.02 ± 0.092

Sequence: ACAAAGCAAUAUUACGUCUU
- self-splicing fitness (ln) (30 °C): -0.827 ± 0.051
- self-splicing fitness (ln) (37 °C): -0.41 ± 0.064

Sequence: UAACAGCAAUAUUACGGAUG
- self-splicing fitness (ln) (30 °C): -1.51 ± 0.053
- self-splicing fitness (ln) (37 °C): -0.304 ± 0.063

Sequence: ACGUAGCAAUAUUACGUGUC
- self-splicing fitness (ln) (30 °C): -3.68 ± 0.32
- self-splicing fitness (ln) (37 °C): -2.48 ± 0.37

Sequence: UGACAGCAAUAUUACGUGUC
- self-splicing fitness (ln) (30 °C): -3.44 ± 0.16
- self-splicing fitness (ln) (37 °C): -2.98 ± 0.16

Sequence: UUGCAGCAAUAUUACGGAAC
- self-splicing fitness (ln) (30 °C): -2.24 ± 0.32

Sequence: GGUAAGCAAUAUUACGAUGA
- self-splicing fitness (ln) (30 °C): -1.83 ± 0.26
- self-splicing fitness (ln) (37 °C): -0.16 ± 0.2

Sequence: UAGCAGCAAUAUUACGGACC
- self-splicing fitness (ln) (30 °C): -1.74 ± 0.18
- self-splicing fitness (ln) (37 °C): -1.67 ± 0.29

Sequence: GUCUAGCAAUAUUACGCUGU
- self-splicing fitness (ln) (30 °C): -0.966 ± 0.09
- self-splicing fitness (ln) (37 °C): -0.224 ± 0.094

Sequence: GGGCAGCAAUAUUACGUCAC
- self-splicing fitness (ln) (37 °C): -1.18 ± 0.42

Sequence: UUUCAGCAAUAUUACGAGCA
- self-splicing fitness (ln) (30 °C): -1.41 ± 0.14
- self-splicing fitness (ln) (37 °C): -0.671 ± 0.12

Sequence: GAUCAGCAAUAUUACGCAGA
- self-splicing fitness (ln) (30 °C): -2.13 ± 0.14
- self-splicing fitness (ln) (37 °C): -0.891 ± 0.16

Sequence: CGCUAGCAAUAUUACGUGUA
- self-splicing fitness (ln) (30 °C): -3.54 ± 0.27
- self-splicing fitness (ln) (37 °C): -1.53 ± 0.13

Sequence: CGACAGCAAUAUUACGGGCC
- self-splicing fitness (ln) (30 °C): -2.97 ± 0.17
- self-splicing fitness (ln) (37 °C): -2.43 ± 0.23

Sequence: GAAAAGCAAUAUUACGAAAG
- self-splicing fitness (ln) (30 °C): -3.5 ± 0.15
- self-splicing fitness (ln) (37 °C): -1.9 ± 0.14

Sequence: UUCCAGCAAUAUUACGGUAC
- self-splicing fitness (ln) (30 °C): -4.17 ± 0.24
- self-splicing fitness (ln) (37 °C): -2.6 ± 0.23

Sequence: AACCAGCAAUAUUACGGCCU
- self-splicing fitness (ln) (30 °C): 0.12 ± 0.075
- self-splicing fitness (ln) (37 °C): -0.853 ± 0.082
